# Results reported in article PMC9352726 (Nature Communications, 2022).
# B1: purified recombinant human guanylate-binding protein 1 (hGBP1) (natural protein, UniProt P32455 1-592, looked up)
# chain: MASEIHMTGPMCLIENTNGRLMANPEALKILSAITQPMVVVAIVGLYRTGKSYLMNKLAGKKKGFSLGSTVQSHTKGIWMWCVPHPKKPGHILVLLDTEGLGDVEKGDNQNDSWIFALAVLLSSTFVYNSIGTINQQAMDQLYYVTELTHRIRSKSSPDENENEVEDSADFVSFFPDFVWTLRDFSLDLEADGQPLTPDEYLTYSLKLKKGTSQKDETFNLPRLCIRKFFPKKKCFVFDRPVHRRKLAQLEKLQDEELDPEFVQQVADFCSYIFSNSKTKTLSGGIQVNGPRLESLVLTYVNAISSGDLPCMENAVLALAQIENSAAVQKAIAHYEQQMGQKVQLPTETLQELLDLHRDSEREAIEVFIRSSFKDVDHLFQKELAAQLEKKRDDFCKQNQEASSDRCSALLQVIFSPLEEEVKAGIYSKPGGYRLFVQKLQDLKKKYYEEPRKGIQAEEILQTYLKSKESMTDAILQTDQTLTEKEKEIEVERVKAESAQASAKMLQEMQRKNEQMMEQKERSYQEHLKQLTEKMENDRVQLLKEQERTLALKLQEQEQLLKEGFQKESRIMKNEIQDLQTKMRRRKACTIS
# notes: also called pSUMO-hGBP1
# Experiments:
# [1] = molecular target: T1, purified recombinant YspE1, full length (Yersinia pestis, UniProt A0A3N4BII9 1-626); assay: SPR; Biacore T200; […] (0–20 μM) […] (20 mM HEPES pH 7.4, 150 mM NaCl, 3.4 mM EDTA, 0.005% P20); 25 °C; settings: both partners purified
# T1 sequence: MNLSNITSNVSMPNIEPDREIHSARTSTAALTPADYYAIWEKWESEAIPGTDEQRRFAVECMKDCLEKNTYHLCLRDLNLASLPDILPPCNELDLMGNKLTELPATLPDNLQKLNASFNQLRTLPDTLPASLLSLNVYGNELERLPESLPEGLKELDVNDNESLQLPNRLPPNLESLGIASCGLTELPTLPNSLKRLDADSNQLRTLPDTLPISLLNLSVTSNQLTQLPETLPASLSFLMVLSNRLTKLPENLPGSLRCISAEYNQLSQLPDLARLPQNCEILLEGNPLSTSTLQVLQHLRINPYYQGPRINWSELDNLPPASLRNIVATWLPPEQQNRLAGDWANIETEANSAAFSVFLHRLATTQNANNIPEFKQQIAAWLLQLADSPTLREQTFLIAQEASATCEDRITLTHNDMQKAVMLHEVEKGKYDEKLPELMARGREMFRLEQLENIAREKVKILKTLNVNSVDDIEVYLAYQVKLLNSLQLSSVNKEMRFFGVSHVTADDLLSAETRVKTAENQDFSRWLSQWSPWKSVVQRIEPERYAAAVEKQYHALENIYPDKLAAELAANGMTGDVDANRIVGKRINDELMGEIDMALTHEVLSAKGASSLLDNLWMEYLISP
# [2] = molecular target: T2, purified recombinant YspE2, full length (Yersinia pestis, UniProt A0AAP0VE47 1-605); assay: as above; settings: both partners purified
# T2 sequence: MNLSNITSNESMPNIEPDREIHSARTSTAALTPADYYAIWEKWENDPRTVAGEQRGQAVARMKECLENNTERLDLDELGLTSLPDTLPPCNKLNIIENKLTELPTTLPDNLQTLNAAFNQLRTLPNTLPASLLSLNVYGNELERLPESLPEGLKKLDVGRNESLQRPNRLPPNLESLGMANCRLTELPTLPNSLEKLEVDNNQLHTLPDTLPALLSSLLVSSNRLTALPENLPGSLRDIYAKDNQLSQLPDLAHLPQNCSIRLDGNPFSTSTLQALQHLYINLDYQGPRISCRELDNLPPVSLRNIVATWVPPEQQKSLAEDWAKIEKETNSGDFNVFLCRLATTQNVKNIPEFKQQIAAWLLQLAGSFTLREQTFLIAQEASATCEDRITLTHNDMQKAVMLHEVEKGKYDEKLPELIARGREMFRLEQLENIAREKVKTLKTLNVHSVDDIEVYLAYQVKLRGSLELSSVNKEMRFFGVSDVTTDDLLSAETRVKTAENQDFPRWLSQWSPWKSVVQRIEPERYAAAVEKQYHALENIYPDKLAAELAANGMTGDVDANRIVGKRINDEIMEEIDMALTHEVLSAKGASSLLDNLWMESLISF
binder,measurement,setting,value
B1,Kd,[1],0.37 µM
same,Kd,[2],1.5 µM
